From the nanobody polyreactivity screen of Harvey et al. (2022)

Experiment: yeast display, Sf9 membrane polyspecificity reagent, FACS + sequencing; frameworks hold sequencing errors
Summary of the method: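 Polyreactivity labels are assigned by the sorting gate from which each nanobody was recovered. The gates were low and high (top ~1%), set on anti-HA fluorescence for expression and streptavidin fluorescence for reagent binding. Before sorting, galactose-induced (36–48 hours) yeast display cells were stained for 1 hour at 4 °C with 10% biotinylated, detergent-solubilized Sf9 membrane reagent.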

Sequence	polyreactivity (PSR sort gate)
QVQLVESGGGEVQAGGSLRLSCAASGNIFVKYNMGWYRQAPGKERKLVAAIRWSGGTTNYADSVKGRFTISRDNAKSTVYLQMNSLKPEDTAVYYCNTGYWFFGYNEYDYWGQGTQVTVSS	low polyreactivity
QVQLVESGGGLVQAGGSLRLSCAASGRTFGYYAMGGYRQAPGKERELVAGIRSSGGSTYYADSVKGRFTISRDHAKNTVYLKMNSLIPEDTAVYYCAARLRSYHYRYGYDYWGQGTQVTVSS	high polyreactivity
QDQPVESGGGLVQAGGRLRLSCAASGIICSGYAMGWYRQAAGKERELVAAISNDGTRTYYADSVKGRFTISRDNAKNTVYLQMNSLKPEDTAVYYCAAYSRLNVLGYDYWGQGTQVTVSS	high polyreactivity
QVQLVESGGGLVQAGGSLRLSCAASGRTFTVNAMGWYRQAPGKERELVARISYGGARTYYADSVKGRFTISRDNAKNTVYLQMNSLKPEDTAVYYSAAPGPRKYEYDYWGQGTQVTVSS	high polyreactivity
QVQLVESGGGLVQAGGSLRLSCAASGLIFYYYAMGWYRQAPGKEREFVAAISRSGGITRYADSVKGRFTISRDNAKNTVYLQMNSLKPEDTAVYYCAADAYPLTYDDYYWGQGTKVTVSS	high polyreactivity
QVQLVESGGGLVQEGGSLRLSCAASGSTFRRNAMGWYRQAPGKERELVAAISTSGGTTYYADSVKGRFTISRDYAKNTVYLQMNSLKPEDTAVYYCAAGGKKRDDYWGQGTQVTVSS	high polyreactivity
QVQLVESGGGLVQAGGSLRLSCAASGSTFPYNAMGWYRQAPGKERELVAAITWRAGRTYYADSVKGRFTSSRDNAKNTVYLQMNSLKPEDTAVYYCAKSYQRGVNHYEYWGQGTQVSVSS	high polyreactivity
QVHLVESGGGLVQAGGSLRLSCAASGRIYRVNGMGWYRQAPGTERELVAAIRRSGGSTYYADSVKGRFTISRDIAKNTVYLQMNSLKPEDTAVYYCAARVRQSSYTRYDSWGQGTQVTVSS	high polyreactivity
QVQLVESGGGLVQAGGSLRLSCAASGRTFPGYGMGWYRQAPGKERELVAVITSNGGITYYADSVKGRFTISRDNAKNTVYLQMNSLKPEDTAVYYCAAQNVWFYGFWRDYWGQGTQVTVSS	low polyreactivity
QVQLVESGGGLVQAGGSLRLSCAASGSIFEQNAMGWYRQAPGKERELVAAITWSGDSTYYADSVKGRFTISRDNAKNTVYLQMNSLKPEDTAVYYCAKEFGGTKRYGWYNYWGQGTQVTVSS	low polyreactivity
QVQLVESGGGLVQAGGSLRLSCAASGSTFKRYTMGWYRQAPGKERELVAAISTSSGSTYFADSVKGRFTISRDNAKISVYLQMNSLKPEDSAVYYCDAVRLRQTYPKYNYWGQGTQVTVSS	high polyreactivity
QVQLVESGGGLVQAGGSLRLSCAASGRIFYLYAMGWYRQAPGKERELVATINSGGSTKYADSVKGRFTISRDNAKNTVYLQMNSLKPEDTAVYYCNAKRWKDYYPYQSWKYGYWGQGTQVTVSS	high polyreactivity
QVQLVESGGGLVQAGGSLRFSCAASGTFDYYDMGWYRQAPGKEWELVAGITSGGSTDYADSEKGRFTISRDNAKNTVYLQMNSLKPEDTAVYYCAADPFRIHTYDYWGQGTQVTVSS	low polyreactivity
QVQLVESGGGLVQAGGSLRLSCAASGITFPENDMGWYIKAPGKEREFDADITSSGGNTYYADSVKGRFTISRDNAKNTVYLHMNSLKPEDSAVYYCNADDGYFYVYQGWYDEMDYWGQGTQVTVSS	high polyreactivity
QFQLVESGGGLVQAGGSLRLSCAASGFIFGYNAMGWYRQAPGKERELVAPITYNGASTNYADSVKGRFTISRDNAKNTVYLQMNSLKPEDTAVYYCAADYGPYDPEDDWGQGTQVTVSS	low polyreactivity
QVQLVESGGGLVQAGGRLRLSCAASGFNFHYYAMGWYRQAPGKERELVAAISWSSGRTYYADSVKGRFTISRDNEKNTVYLQMNSLKPEDTAVYYCAASSYNRGDYWGQGTQVTVSS	high polyreactivity
QVQLVESGGGLVQARVSLRLSSAASGFIIYPYVMGWYRQAPGKERELVATIRTDGRTSYADSVKGRFTISRDNAKNTFYLQMNSLKPEDTAVYYCDARSPLYYIVPYELVQYDYWGLGTQVTVSS	high polyreactivity
QVQLVESGGGLVQAGGSLRLSCASSGRTFFKNALGWYRQSPGKERELVARISWNGGDSTYYADSVKGRFTISRDNAKITVFFQMISLKPEDTAVYYCAADTSYRQGGSRHGYVYWGQGTQVTVSS	low polyreactivity
QVQLVESGGGLVQAGGSLRLSCPASGSTFAIYGMGWYRQAPGKERELVAGITRGGSTNYADSVKGRFTISRDNAKNTVYLQMNILKPEDTAVYYCNSPLGVRRFKSKGRSHYEYWGQGTQVSVSS	high polyreactivity
QVQLVESGGGLVQAGGSLRLSCAASGSIMSYYAMGWYRQAPGQVREFVAAISSGGGTYYADSVKGRFTISRDNAKNTVYLQMNSLNAEDTAVFYCNADHASSIQFEYWGQGTQVTVSS	low polyreactivity
QVQLVESGGGLVQAGGSLRLSCAASGFTLYYYMGWYRQAPGKERELVARIRATGGSTYYADSVKGRFTISRDNAKNTVDLQMNSLKPEDTAVYYCAAKGVPRRYRPDMYYWGQGTQVTVSS	high polyreactivity
QVQLVESGGGLVQAGGSLRLSCAASGSTFASNAMGWYRQAPGKERELVAAITSRDASTYYADSVKGRFTISRDKEKNTVYLQMNSLKPEDTAVYYCAPVGYSPAAFDYWGQGTQVTVSS	low polyreactivity

Sequence	polyreactivity (PSR sort gate)
QVQLVESGGGLVQAGGSLRLSCAASGRIIWSNTMGWYRQAPGKESELVAASSGRGGSTYYADSVKGRFTISRDNAKNTVYLQMNSLKPEDTAVYYCAAKPTRSRKIYEYWGQGTQVTVSS	low polyreactivity
QVQLVESGGGLVQAGGSLRLSCAASGSIFSDYAMGWYRQAPGTERELVAAITEGGDSTYYADSVKGRFTISRDNAKNTVYLQMNSLKPEDTAVYSCAAEVYQLFTSPFDYWGQGTQVTVSS	low polyreactivity
QVQLVESGGRLVQAGGSLRLSCAASGLILLPNTMGWYRQAPGKESEMVAAISYSGGGTYYADSVKARFTISRDNAKNSVYLQMNSLKPEDTAVYYCAAYVKRESAPYGYWGQGTQVTVSS	low polyreactivity
QGQLVESGGGLVQAGGSLRLSCAASGRIFYQNDMGWYIQAPGKERELVADIASGGSTYYADSVKGRFTISRDNAKNTVYLQMNSLKPEDTAVYYCASAVLYGDGWYYYWGQGTQVTVSS	low polyreactivity
QVQLVESGGGLVQAGGSLRLSCAASGFTLARYAMGWYRPAPGKERELVAALTQSGVSTYYADSVKGRFTISRDNAKNTVYLQMNSLKPEDTAVYYCNALLRRTDYRYTWGYGYWGQGTQVTVSS	high polyreactivity
QVQLVESGGGLVQAGGSLRLSCAASGRTFKYYTMGWYRQAPGKERELVAVIRGTGSTYYADSVKGRFTISRDNAKNTVYLQMNSLKPEDTAVYYCAVQVRRRYNYWGQGTQVTVSS	high polyreactivity
QVQLVESGGGLVQAGGSLRLSCAASGGTFYPYAMGWYRQAPGKVRELVAAITSCGSTNYADSVKGRFTISRDNAKKTVYLQMNSLKPEDTAVYYCAAKSSYIRPTNSDDYDYWGQGTQVTVSS	low polyreactivity
QVQLVESGGGLVQAGGSLRLSCAASGSIFRSNAMGWYRQAPGKEREFVAAITSRSSSTYYADSVKGRFTISRDNAKNTVYLQMNSLKPEDTAVYYCAARYQHYFTGGDYWGQGTQVTVSS	low polyreactivity
QVQLVESGGGLVQAGGSLRLSCAASGRIIPLNAMGWYRPAPGKERELVAAISYDGCTYYADSVKGRFTISRDNAKNTVYLQMNSVKPEDTAVYYCAARGSYRGPYNVEYDSWGQGTQVTVSS	low polyreactivity
QVQLVESGGGLVQAGGSLRLSCAASGIIFVDNVMGWYIQAPGKERELVAAIDYSGGSTYYADSVKGRFTISRDNAKNSVYLQMNSLKPEDTAVYYCAATDPRRRVRYGYWGQGTQVTVSS	low polyreactivity
QVKLVESWRGLVPAGVSLRLSCAASVNILDYYAMGWYRQAPGNERELVASITSGGGTYYADSVKGRFTISRDNAKNTVYLQMNSLKPEDTAVYYCNAGPKRTYSPPWRVRYYDWGQGTQVTVSS	high polyreactivity
QVQLVESGGGLVQAGGSLRLSCAASGFTFYLNAMGWYRQAPGKERELVAAISYSDGSTYYADSVKGRFTISRDNAKNTVYLQMNRLKPEDTAVYFCAADTTDPGGAYQLMDYWGQGTQVTVSS	high polyreactivity
QVQLVESGGGLVQAGGSLRLSCAASGSTFKWYAMGWYRQAPGKERELVAAITVSGDSTYYADSVKGRFTISRDNAKNTVYLQMNSLKPEDTAVYYCAKDYQGITPYDYWGQGTQVTVSS	low polyreactivity
QVQLVESGGGLVQAGGSLRLSCAASGSIFQRYAMGWYRQAPGKEREFVAAISGRGGSTYYADSVKGRFTISRDNAKNTVYLQMNSLKPEDTAVYYCAVRGRSYVRTYDYWGQGTQVTVSS	high polyreactivity
QVQLVESGGCSVQAGGSLRLSCAAAGRIFSYYAMGWYRQAPGKERELVAAITSGGRTYYADSVKGRFTISRDNAKTTVYLQMNSLKPEDTAVYYCAVGVRNQYYYWGQGTQVTVSS	high polyreactivity
QVQLVESGGGLVQAGGSLRLSCAASGRIFYANAMGWYRQAPGKERELVASISTTGDSTYYADSVKGRFTISRDNAKNTDYLQMNSLKPEDTAVYYCNTRGSEYLWYGYDYWGQGTQVTVSS	low polyreactivity
QVQLGESGGGLVQAGGSLRLSCAASGRIFRYYAMGWYRQAPGKERELVAAISSSGGSTYYADSVKGRFTISRDNAKNTVYLQMNSLKPEDTAVYYCNTVGSVGKKRDYWGQGTQVTVSS	high polyreactivity
QVQLVESGVCLVQAGGSLRLSCAASGSTYTYAMGWYRQAPGKERELVADITQSGGSTYYADSVKGRFTISRDNAKKTVYLQMNTLKPEDTAVYYCNAESRHVFEDEYWGQGTQVTVSS	low polyreactivity
QVQLEESGGGLVQAGGSLRLSCAASGSTFHINAMGWYRQAPGKEREFVADINWSGGSTYYADSVKVSFTISRDNAKNTVYLQMNSLKPADTAVYYFAADVGVFTYSPYDAGEHDYWGQGTLVTVSS	low polyreactivity
QVQLVESGGGLVQAGGSLRLSCAASGSTFSYYTMGWYRQAPGKEREFVAAISNSGSRTYYADSVKGRFTISRDNAKNTVYLQMNSLKPEDTAVYYCNAAYGYRFPRDYWGQGTQVIVSS	high polyreactivity
QVQLVESVVGLVQAGGSLRLSSAASGSIFPYYVMGWYRQAPGKERELVAAISSRGTSTYYADSVKGRFTLSRDNAKNSVYLQMNSLKPEDTAVYYCAAAYVKFYGYSAEYDYCGQGTQVTVSS	low polyreactivity
